The conditions of data set [1]: in vivo; cited from earlier work.
For data set [2], the system named is rat inflammation model (E. coli, left hindleg). Put plainly: Biodistribution and imaging of Tc-99m labelled conjugates in a rat inflammation model. Particulars: for Blood / G.I. tract / Urine: Tc-99m labelled conjugate i.v.; for inflam muscle: inflamed muscle (left leg); for Uninfl muscle: non-inflamed muscle (right leg); for Inflam:Uninfl: ratio inflamed to uninflamed muscle.

Where no end group is shown, it is not given here. The star is where a group is joined. Bz‑MA = benzoylmercaptoacetyl chelator, O=C(SCC(=O)*)c1ccccc1; Picolinoyl = O=C(c1ccccn1)*; Acm = CC(=O)NC*

On to “labelled tuftsin: naturally occurring tetrapeptide tuftsin TKPR (Seq. ID no:1) labelled with a radionuclide metal (also: labelled with a radionuclide metal)”, for which the “accumulation in non-target tissue (gastrointestinal tract), in words” value in data set [1] is recorded as “accumulated in the gastrointestinal tract”.
Consider “PicSerCys(Acm) Gly RTKPR: chelator PicSerCys(Acm), linking group Gly, peptide RTKPR (Seq ID no: 11); comparison conjugate ({Picolinoyl-Ser-Cys(Acm)}-GRTKPR)”, for which, in data set [2] (Time 35 min), the Blood is reported as 0.169 % dose/g, the G.I. tract was 15.0, the Urine turned out to be 45.4 and the inflam muscle is 0.099 % dose/g. In data set [2] (Time 35 min), the Uninfl muscle is reported as 0.033 % dose/g and the “Inflam:Uninfl” value is recorded as 3.0.
For “PicSerCys(Acm) Gly TKPRTKPR: chelator PicSerCys(Acm), linking group Gly, peptide TKPRTKPR (tuftsin dimer, Seq ID no: 10); comparison conjugate ({Picolinoyl-Ser-Cys(Acm)}-GTKPRTKPR)”, in data set [2], the “accumulation in blood, in words” value is given as “low accumulation”; the “accumulation in the GI tract, in words” value was “low accumulation”; the “urine levels / clearance into the urine, in words” value is given as “particularly low urine levels”. In data set [2] (Time 35 min), the Blood is given as 0.136 % dose/g, the G.I. tract is reported as 4.2, the Urine amounted to 16.1 and the inflam muscle is given as 0.071 % dose/g. For the same substance, in data set [2] (Time 35 min), the Uninfl muscle stood at 0.022 % dose/g and the “Inflam:Uninfl” value amounted to 3.2.
With “PicSerCys(Acm) Gly KPPR: chelator PicSerCys(Acm), linking group Gly, peptide KPPR (Seq ID no: 9); comparison conjugate ({Picolinoyl-Ser-Cys(Acm)}-GKPPR)”, in data set [2] (Time 45 min), the Blood was determined as 0.220 % dose/g, the Urine amounted to 43.5, the inflam muscle is 0.125 % dose/g and the Uninfl muscle amounted to 0.059 % dose/g. For the same substance, the “Inflam:Uninfl” value in data set [2] (Time 45 min) is 2.1.
For “Pic-Ser-Cys(Acm)-Gly-TKPPR (Picolinoyl-SC(Acm)GTKPPR) [PicSerCys(Acm) Gly TKPPR]”, in data set [2] (Time 30 min), the Blood was 0.392 % dose/g, the G.I. tract stood at 5.08, the Urine was found to be 44.71 and the inflam muscle is 0.154 % dose/g. Besides, in data set [2] (Time 30 min), the Uninfl muscle is given as 0.052 % dose/g and the “Inflam:Uninfl” value is on record as 3.6. In addition, in data set [2] (Time 180 min), the Blood is 0.048 % dose/g, the G.I. tract is 3.71, the Urine turned out to be 80.62 and the inflam muscle stood at 0.026 % dose/g. In data set [2] (Time 180 min), the Uninfl muscle was found to be 0.006 % dose/g and the “Inflam:Uninfl” value came to 4.7.
In data set [2] (Time 35 min), “Bz-MA-Ser-Cys-Ser-Gly-Asp-Gly-TKPPR ({Bz‑MA}-SCSGDGTKPPR) [BzMASerCys SGDG- TKPPR]” had a Blood of 0.483 % dose/g, a Urine of 47.8, an inflam muscle of 0.226 % dose/g and a Uninfl muscle of 0.057 % dose/g. In addition, the “Inflam:Uninfl” value in data set [2] (Time 35 min) stood at 4.0.
In data set [2] (Time 35 min), “PicSerCys(Acm) Gly TKPR: chelator PicSerCys(Acm), linking group Gly, native tuftsin peptide TKPR (Seq ID no: 1); comparison conjugate ({Picolinoyl-Ser-Cys(Acm)}-GTKPR)” had a Blood of 0.268 % dose/g, a G.I. tract of 22.8, a Urine of 22.8 and an inflam muscle of 0.120 % dose/g. Besides, in data set [2] (Time 35 min), the Uninfl muscle worked out at 0.040 % dose/g and the “Inflam:Uninfl” value was 3.0.
In data set [2] (Time 35 min), “Pic-Ser-Cys(Acm)-Gly-Asp-Gly-TKPPR (Picolinoyl-SC(Acm)GDGTKPPR) [PicSerCys(Acm) GDG TKPPR]” registered a Blood of 0.228 % dose/g, a Urine of 63.1, an inflam muscle of 0.166 % dose/g and a Uninfl muscle of 0.034 % dose/g. Also, the “Inflam:Uninfl” value in data set [2] (Time 35 min) was 4.9.
